Source: patent publication US20230287598A1
Where a chain is given by its changes, count along the chain named. Numbers in names are those of the source.

B1: VH4-34+CDR3-IL8_CDR1-Cow_CDR2-E50S_Q5RQ6E / VL1-51 S2A, T5N, P8S, A12G, A13S, P14L, K46R, L47T, D51G, N52D, N53T IgG (antibody)
VH: QVQLREWGAGLLKPSETLSLTCTASGFSLSDKAVGWIRQPPGKGLEWIGSINHSGSTNYNPSLKSRVTISVDTSKNQFSLKLSSVTAADTAVYYCTSVHQETKKYQSPRSAKELRCQCIKTYSKPFHPKFIKELRVIESGPHCANTEIIVKLSDGRELCLDPKENWVQRVVEKFLKRAENSGSGSYTYNYEWHVDVWGQGLLVTVSS
light: QAVLNQPSSVSGSLGQKVTISCSGSSSNIGNNYVSWYQQLPGTAPRTLIYGDTKRPSGIPDRFSGSKSGTSATLGITGLQTGDEADYYCASAEDSSSNAVFGSGTTLTVLGQPKAAPSVTLFPPSSEELQANKATLVCLISDFYPGAVTVAWKADSSPVKAGVETTTPSKQSNNKYAASSYLSLTPEQWKSHRSYSCQVTHEGSTVEKTVAPTECS
B2: VH4-34+CDR3-IL8_CDR2 E50S / VL1-51 S2A, T5N, P8S, A12G, A13S, P14L, D51G, N52D, N53T IgG (antibody)
VH: QVQLQQWGAGLLKPSETLSLTCAVYGGSFSGYYWSWIRQPPGKGLEWIGSINHSGSTNYNPSLKSRVTISVDTSKNQFSLKLSSVTAADTAVYYCTSVHQETKKYQSPRSAKELRCQCIKTYSKPFHPKFIKELRVIESGPHCANTEIIVKLSDGRELCLDPKENWVQRVVEKFLKRAENSGSGSYTYNYEWHVDVWGQGLLVTVSSAS
light: B1 light with R46K, T47L
B3: VH4-34+CDR3-IL8_CDR1 G31D,Y32K / V1-47 IgG (antibody, part only; not given: V1-47 light chain, part only)
VH: B2 VH with G31D, Y32K, S50E
B4: VH4-34+CDR3-IL8_CDR1 Cow / V1-51 IgG (antibody, part only)
heavy: QVQLQQWGAGLLKPSETLSLTCTASGFSLSDKAVGWIRQPPGKGLEWIGEINHSGSTNYNPSLKSRVTISVDTSKNQFSLKLSSVTAADTAVYYCTSVHQETKKYQSPRSAKELRCQCIKTYSKPFHPKFIKELRVIESGPHCANTEIIVKLSDGRELCLDPKENWVQRVVEKFLKRAENSGSGSYTYNYEWHVDVWGQGLLVTVSSAS
light: QSVLTQPPSVSAAPGQKVTISCSGSSSNIGNNYVSWYQQLPGTAPKLLIYDNNKRPSGIPDRFSGSKSGTSATLGITGLQTGDEADYYCASAEDSSSNAVFGSGTTLTVLGQPKAAPSVTLFPPSSEELQANKATLVCLISDFYPGAVTVAWKADSSPVKAGVETTTPSKQSNNKYAASSYLSLTPEQWKSHRSYSCQVTHEGSTVEKTVAPTECS
B5: VH4-34+CDR3-IL8_CDR1 Cow_CDR2 E50S / V1-51 IgG (antibody, part only; not given: V1-51 light chain, part only)
VH: B4 heavy with E50S
B6: VH4-34+CDR3-IL8_CDR2 Cow / V1-51 IgG (antibody, part only; not given: V1-51 light chain, part only)
VH: B2 VH with I48L, N52D, H53T, S54G, S56N, N58G
B7: VH4-34+CDR3-IL8_CDR1 G31D,Y32K / V1-51 IgG (antibody, part only)
heavy: B2 VH with G31D, Y32K, S50E
light: B4 light
B8: VH4-34+CDR3-IL8_CDR1 Cow / V1-47 IgG (antibody, part only; not given: V1-47 light chain, part only)
VH: B4 heavy
B9: VH4-34+CDR3-IL8_CDR1 Cow_CDR2 E50S / V1-47 IgG (antibody, part only; not given: V1-47 light chain, part only)
VH: B4 heavy with E50S
B10: VH4-34+CDR3-IL8_CDR1 G31D,Y32K_CDR2 E50S / V1-51 IgG (antibody, part only; not given: V1-51 light chain, part only)
VH: B2 VH with G31D, Y32K
B11: VH4-34+CDR3-IL8_CDR2 E50S / V1-47 IgG (antibody, part only; not given: V1-47 light chain, part only)
VH: B2 VH
B12: VH4-34+CDR3-IL8 / V1-47 IgG (antibody, part only; not given: V1-47 light chain, part only)
VH: B2 VH with S50E
B13: VH4-34+CDR3-IL8_CDR1 G31D,Y32K_CDR2 E50S / V1-47 IgG (antibody, part only; not given: V1-47 light chain, part only)
VH: B2 VH with G31D, Y32K
B14: VH4-34+CDR3-IL8 / V1-51 IgG (antibody, part only; not given: V1-51 light chain, part only)
VH: B2 VH with S50E
B15: VH4-34+CDR3-IL8_CDR2 Cow / V1-47 IgG (antibody, part only; not given: V1-47 light chain, part only)
VH: B2 VH with I48L, N52D, H53T, S54G, S56N, N58G
B16: VH4-34+CDR3-IL8_CDR2 E50S / V1-51 IgG (antibody, part only; not given: V1-51 light chain, part only)
VH: B2 VH
B17: VH4-34+CDR3-IL8_CDR1 Cow_CDR2 Cow / V1-47 IgG (antibody, part only; not given: V1-47 light chain, part only)
VH: B4 heavy with I48L, E50S, N52D, H53T, S54G, S56N, N58G

target: CXCR1 (UniProt P25024); test: flow cytometry, supernatant at 5 nM IgG
Sequence (P25024 whole entry): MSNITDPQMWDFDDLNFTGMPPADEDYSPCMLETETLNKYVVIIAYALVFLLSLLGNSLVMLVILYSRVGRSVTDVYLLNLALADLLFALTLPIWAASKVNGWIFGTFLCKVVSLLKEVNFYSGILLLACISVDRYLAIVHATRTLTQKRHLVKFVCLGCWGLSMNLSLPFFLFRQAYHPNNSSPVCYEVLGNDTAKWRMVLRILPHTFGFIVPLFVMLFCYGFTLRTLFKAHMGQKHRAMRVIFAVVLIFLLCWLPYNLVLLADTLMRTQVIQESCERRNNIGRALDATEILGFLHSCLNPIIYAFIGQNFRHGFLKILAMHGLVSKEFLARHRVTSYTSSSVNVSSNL

Specific Binding (CXCR1-Cell median AFU / Parental Cell median AFU) | Binder
2 | B1
2 | B2

target: CXCR1 (UniProt P25024); test: flow cytometry, CXCR1-U2OS / parental U2OS

CXCR1/Parental Ratio | Binder
3.6 | B3
2.4 | B4
3.1 | B5
3.9 | B6
3 | B7
5.1 | B8
2.6 | B9
3 | B10
3.3 | B11
2.6 | B12
1.4 | B13
2.9 | B14
2.5 | B15
1.8 | B16
4.6 | B17

target: CXCR1 (UniProt P25024); test: flow cytometry, 10 nM IgG, 2 ug/ml heparin sulfate, CXCR1-U2OS / parental U2OS

CXCR1 specificity (CXCR1/parental ratio) | Binder
7.2 | B4
